Results taken from US20030228623A1.
“And” between values parts separate entries of the source, which are not always exact repeats. Identical values can stand only once.

Columns and labels:
[1] = target: modified streptavidin Stv-38; assay: phage on microtiter wells coated with Stv-38, washed, eluted with 3 mM biotin, plated on TG1 cells; input 159,500
[2] = target: modified streptavidin Stv-38; assay: phage on microtiter wells coated with Stv-38, washed, eluted with 3 mM biotin, plated on TG1 cells; input 1,590,500
[3] = target: streptavidin (streptavidin-coated magnetic beads, Dynal) (UniProt P22629); assay: phage incubated with streptavidin-coated beads, washed, released with Factor Xa, plated on TG1 cells; 97,500 phage used
streptavidin (streptavidin-coated magnetic beads, Dynal), sequence (P22629 37-163 limits assumed): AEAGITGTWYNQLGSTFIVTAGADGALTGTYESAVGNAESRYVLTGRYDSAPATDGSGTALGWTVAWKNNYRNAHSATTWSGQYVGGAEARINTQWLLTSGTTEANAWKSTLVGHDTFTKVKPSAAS

[4] = target: modified streptavidin Stv-38; assay: phage on microtiter wells coated with Stv-38, washed, eluted with 3 mM biotin, plated on TG1 cells
[5] = target: streptavidin (streptavidin-coated magnetic beads, Dynal) (UniProt P22629); assay: phage incubated with streptavidin-coated beads, washed, released with Factor Xa, plated on TG1 cells
[6] = target: streptavidin (streptavidin-coated magnetic beads, Dynal) (UniProt P22629); assay: streptavidin-coated beads capture; phage from host cells grown without added biotin; 109,000 phage used
[7] = target: modified streptavidin Stv-38; assay: phage on microtiter wells coated with Stv-38, washed, eluted with 3 mM biotin, plated on TG1 cells; input 250,000
[8] = target: streptavidin (streptavidin-coated magnetic beads, Dynal) (UniProt P22629); assay: streptavidin-coated beads capture; phage from host cells grown without added biotin
[9] = target: streptavidin (streptavidin-coated magnetic beads, Dynal) (UniProt P22629); assay: phage incubated with streptavidin-coated beads, washed, released with Factor Xa, plated on TG1 cells; 96,500 phage used
[10] = target: streptavidin (streptavidin-coated magnetic beads, Dynal) (UniProt P22629); assay: spores (in vivo), streptavidin-coated magnetic beads, washed, plated; input 843,900
[11] = target: streptavidin (streptavidin-coated magnetic beads, Dynal) (UniProt P22629); assay: spores (in vivo), streptavidin-coated magnetic beads, washed, plated
[12] = target: streptavidin (streptavidin-coated magnetic beads, Dynal) (UniProt P22629); assay: spores incubated in vitro with BirA, biotin and ATP, then streptavidin-coated beads
[13] = target: streptavidin (streptavidin-coated magnetic beads, Dynal) (UniProt P22629); assay: spores incubated in vitro with BirA, biotin and ATP, then streptavidin-coated beads; input 417,600
[14] = target: streptavidin (streptavidin-coated magnetic beads, Dynal) (UniProt P22629); assay: spores incubated in vitro with BirA, biotin and ATP, then streptavidin-coated beads; input 919,600
[15] = target: streptavidin (streptavidin-coated magnetic beads, Dynal) (UniProt P22629); assay: spores biotinylated in vivo, streptavidin-coated magnetic beads, washed, plated; input 1,075,900
[16] = target: streptavidin (streptavidin-coated magnetic beads, Dynal) (UniProt P22629); assay: spores biotinylated in vivo, streptavidin-coated magnetic beads, washed, plated
[17] = target: streptavidin (streptavidin-coated magnetic beads, Dynal) (UniProt P22629); assay: spores biotinylated in vivo, streptavidin-coated magnetic beads, washed, plated; input 10,000
[18] = target: streptavidin (streptavidin-coated magnetic beads, Dynal) (UniProt P22629); assay: spores incubated in vitro with BirA, biotin and ATP, then streptavidin-coated beads; input 234,900
[19] = target: streptavidin (streptavidin-coated magnetic beads, Dynal) (UniProt P22629); assay: spores (in vivo), streptavidin-coated magnetic beads, washed, plated; input 814,900
[20] = target: streptavidin (streptavidin-coated magnetic beads, Dynal) (UniProt P22629); assay: spores biotinylated in vivo, streptavidin-coated magnetic beads, washed, plated; input 919,300
[21] = target: streptavidin (streptavidin-coated magnetic beads, Dynal) (UniProt P22629); assay: spores incubated in vitro with BirA, biotin and ATP, then streptavidin-coated beads; input 176,900

spores of PY79-BirA-1K (Fusion 1: peptide-K added to the C-terminus of CotB following residue 275), sequence (P07789 1-275): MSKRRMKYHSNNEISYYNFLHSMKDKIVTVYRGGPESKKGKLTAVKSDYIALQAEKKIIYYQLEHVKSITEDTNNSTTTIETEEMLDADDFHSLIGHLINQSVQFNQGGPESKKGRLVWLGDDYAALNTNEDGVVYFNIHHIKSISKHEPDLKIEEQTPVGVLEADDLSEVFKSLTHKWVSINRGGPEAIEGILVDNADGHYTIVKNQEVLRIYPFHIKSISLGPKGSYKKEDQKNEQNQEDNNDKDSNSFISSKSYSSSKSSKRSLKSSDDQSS
spores of PY79-BirA-1G (Fusion 1: peptide-G added to the C-terminus of CotB following residue 275), sequence (P07789 1-275): as above
bacteriophage K (M13 phage displaying on coat protein pIII the 33-residue peptide recognized by BirA), sequence (P69168 19-424): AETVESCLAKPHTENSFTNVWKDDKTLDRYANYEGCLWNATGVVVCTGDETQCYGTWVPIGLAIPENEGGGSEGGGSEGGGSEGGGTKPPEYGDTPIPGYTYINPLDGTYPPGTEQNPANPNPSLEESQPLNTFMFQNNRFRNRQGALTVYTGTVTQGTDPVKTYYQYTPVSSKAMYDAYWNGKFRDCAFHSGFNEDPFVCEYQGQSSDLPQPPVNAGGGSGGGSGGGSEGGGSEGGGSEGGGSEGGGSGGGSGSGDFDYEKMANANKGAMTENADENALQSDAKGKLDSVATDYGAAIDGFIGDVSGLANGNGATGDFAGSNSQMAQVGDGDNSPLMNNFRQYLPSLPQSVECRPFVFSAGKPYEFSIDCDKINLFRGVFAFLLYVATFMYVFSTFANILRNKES
bacteriophage G (M13 phage displaying on pIII the control peptide with the lysine recognized by BirA replaced by glycine), sequence (P69168 19-424): as above
spores of PY79-BirA-3K (Fusion 3: Fusion 1 with peptide-K, with the last 41 amino acids of CotB added to its C-terminus), sequence (P07789 whole entry, the tested form may be a part): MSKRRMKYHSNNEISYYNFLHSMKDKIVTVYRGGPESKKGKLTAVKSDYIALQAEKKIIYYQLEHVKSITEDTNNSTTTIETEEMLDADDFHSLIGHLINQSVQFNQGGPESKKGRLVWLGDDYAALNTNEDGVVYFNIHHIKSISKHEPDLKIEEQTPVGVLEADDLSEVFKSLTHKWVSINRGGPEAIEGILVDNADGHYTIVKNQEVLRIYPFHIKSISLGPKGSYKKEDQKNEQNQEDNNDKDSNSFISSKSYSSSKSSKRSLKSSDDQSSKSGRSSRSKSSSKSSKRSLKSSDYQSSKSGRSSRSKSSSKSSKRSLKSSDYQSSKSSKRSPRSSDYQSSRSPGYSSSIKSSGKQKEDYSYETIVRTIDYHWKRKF
spores of PY79-BirA-3G (Fusion 3: Fusion 1 with peptide-G, with the last 41 amino acids of CotB added to its C-terminus), sequence (P07789 whole entry, the tested form may be a part): as above
spores of PY79-BirA-2K (Fusion 2: peptide-K at the amino end of the first 275 amino acids of CotB), sequence (P07789 1-275): as the sequence (P07789 1-275) above
spores of PY79-BirA-2G (Fusion 2: peptide-G at the amino end of the first 275 amino acids of CotB), sequence (P07789 1-275): as above

Substance: bacteriophage G (M13 phage displaying on pIII the control peptide with the lysine recognized by BirA replaced by glycine) (from UniProt P69168 19-424)
- Bound [1]: 7 phage
- Bound [2]: 27 phage
- # of bound phage able to bind TG1 cells [3]: 13 phage
- Ratio (%) [4]: 0.002% and 0.004%
- % bound [5]: 0.013%

Substance: bacteriophage K (M13 phage displaying on coat protein pIII the 33-residue peptide recognized by BirA) (from UniProt P69168 19-424)
- # of bound phage [6]: 850 phage
- Bound [7]: 2130 phage
- % bound [8]: 0.78%
- Ratio (%) [4]: 0.504% and 0.852%
- # of bound phage able to bind TG1 cells [9]: 1080 phage
- % bound [5]: 1.11%

Substance: spores of PY79-BirA-1G (Fusion 1: peptide-G added to the C-terminus of CotB following residue 275) (from UniProt P07789 1-275)
- Out (#) [10]: 100 spores
- Ratio (%) [11]: 0.0118%
- Ratio (%) [12]: 0.299%
- Out [13]: 1250 spores

Substance: spores of PY79-BirA-1K (Fusion 1: peptide-K added to the C-terminus of CotB following residue 275) (from UniProt P07789 1-275)
- Ratio (%) [12]: 3.26%
- Out [14]: 30000 spores
- Out (#) [15]: 300 spores
- Ratio (%) [16]: 0.0279%

Substance: spores of PY79-BirA-2G (Fusion 2: peptide-G at the amino end of the first 275 amino acids of CotB) (from UniProt P07789 1-275)
- Ratio (%) [11]: 0%

Substance: spores of PY79-BirA-2K (Fusion 2: peptide-K at the amino end of the first 275 amino acids of CotB) (from UniProt P07789 1-275)
- Out (#) [17]: 920 spores
- Ratio (%) [16]: 9.2%

Substance: spores of PY79-BirA-3G (Fusion 3: Fusion 1 with peptide-G, with the last 41 amino acids of CotB added to its C-terminus) (from UniProt P07789 1-275; P07789 340-380)
- Ratio (%) [11]: 0.0049%
- Ratio (%) [12]: 0.106%
- Out [18]: 250 spores
- Out (#) [19]: 240 spores

Substance: spores of PY79-BirA-3K (Fusion 3: Fusion 1 with peptide-K, with the last 41 amino acids of CotB added to its C-terminus) (from UniProt P07789 1-275; P07789 340-380)
- Ratio (%) [12]: 0.071%
- Out (#) [20]: 260 spores
- Ratio (%) [16]: 0.0283%
- Out [21]: 125 spores
